# Data: patent US20200079876A1 (BIOVERATIV USA, published 2020)
# T1: recombinant human complement component C1s (rhC1s) (human, UniProt P09871 16-688)
# T1 sequence (looked up): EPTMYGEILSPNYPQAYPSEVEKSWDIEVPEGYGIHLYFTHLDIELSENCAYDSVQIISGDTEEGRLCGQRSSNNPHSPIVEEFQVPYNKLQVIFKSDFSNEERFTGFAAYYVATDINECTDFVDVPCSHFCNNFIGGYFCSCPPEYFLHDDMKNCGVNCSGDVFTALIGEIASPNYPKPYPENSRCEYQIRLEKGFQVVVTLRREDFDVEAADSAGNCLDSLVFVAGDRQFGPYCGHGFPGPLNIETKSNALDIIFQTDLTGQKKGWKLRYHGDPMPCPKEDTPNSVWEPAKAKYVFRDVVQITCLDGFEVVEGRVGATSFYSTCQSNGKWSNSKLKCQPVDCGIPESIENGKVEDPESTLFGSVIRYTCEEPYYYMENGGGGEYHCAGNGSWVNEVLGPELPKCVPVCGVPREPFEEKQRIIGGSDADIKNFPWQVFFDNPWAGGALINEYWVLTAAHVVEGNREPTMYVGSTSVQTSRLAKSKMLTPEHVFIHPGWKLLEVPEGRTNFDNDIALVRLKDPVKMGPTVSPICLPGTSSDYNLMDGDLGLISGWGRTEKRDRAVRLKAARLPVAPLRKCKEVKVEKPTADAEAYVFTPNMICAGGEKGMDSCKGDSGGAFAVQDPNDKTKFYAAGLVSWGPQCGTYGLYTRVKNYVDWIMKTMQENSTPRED
# T2: Pro-C1s
# T2 construct: also called purified pro-C1s protein
# T2 chain: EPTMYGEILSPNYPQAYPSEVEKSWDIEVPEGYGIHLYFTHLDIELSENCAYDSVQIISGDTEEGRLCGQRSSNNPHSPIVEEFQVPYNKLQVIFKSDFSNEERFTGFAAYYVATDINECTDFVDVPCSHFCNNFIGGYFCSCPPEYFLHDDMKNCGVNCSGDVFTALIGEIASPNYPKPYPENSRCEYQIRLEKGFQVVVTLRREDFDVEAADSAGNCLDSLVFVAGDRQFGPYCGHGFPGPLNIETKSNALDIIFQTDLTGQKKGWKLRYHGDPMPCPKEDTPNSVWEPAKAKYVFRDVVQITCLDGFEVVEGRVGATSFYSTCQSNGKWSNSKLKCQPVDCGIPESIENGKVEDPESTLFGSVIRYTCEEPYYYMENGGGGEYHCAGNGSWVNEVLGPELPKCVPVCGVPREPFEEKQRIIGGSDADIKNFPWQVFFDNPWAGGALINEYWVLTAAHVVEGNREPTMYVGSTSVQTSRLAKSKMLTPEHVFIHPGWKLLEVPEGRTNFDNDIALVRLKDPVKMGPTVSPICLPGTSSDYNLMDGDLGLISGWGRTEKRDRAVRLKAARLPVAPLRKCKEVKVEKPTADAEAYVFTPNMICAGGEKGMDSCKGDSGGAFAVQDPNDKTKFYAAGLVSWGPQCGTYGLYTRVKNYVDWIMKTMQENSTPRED
# T3: purified human activated C1s protein, two-chain form (Homo sapiens, UniProt P09871 16-688)
# T3 construct: Purified protein bought from EMD Millipore; Biotin-labeled in the clone screen; also called active C1s; native C1s protein
# T3 sequence: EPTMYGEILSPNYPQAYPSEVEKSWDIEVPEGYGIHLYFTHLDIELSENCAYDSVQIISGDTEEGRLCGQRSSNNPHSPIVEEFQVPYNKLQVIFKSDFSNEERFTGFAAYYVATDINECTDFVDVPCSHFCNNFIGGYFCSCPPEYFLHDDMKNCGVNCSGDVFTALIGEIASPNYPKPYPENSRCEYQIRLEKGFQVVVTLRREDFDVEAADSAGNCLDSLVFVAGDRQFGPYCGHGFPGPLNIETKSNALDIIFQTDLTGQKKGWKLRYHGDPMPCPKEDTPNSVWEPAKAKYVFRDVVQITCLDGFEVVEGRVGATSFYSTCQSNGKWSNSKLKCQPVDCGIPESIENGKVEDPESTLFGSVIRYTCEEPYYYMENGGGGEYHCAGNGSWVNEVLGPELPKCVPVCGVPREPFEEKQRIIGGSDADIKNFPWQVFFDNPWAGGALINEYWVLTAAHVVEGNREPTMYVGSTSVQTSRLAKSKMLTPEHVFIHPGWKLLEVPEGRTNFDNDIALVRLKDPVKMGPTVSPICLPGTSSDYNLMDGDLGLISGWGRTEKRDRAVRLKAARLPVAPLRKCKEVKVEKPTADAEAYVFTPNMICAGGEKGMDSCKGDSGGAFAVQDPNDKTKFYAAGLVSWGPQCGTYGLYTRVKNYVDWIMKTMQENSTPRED
# B1: antibody IPN-M11 (antibody, V domains shown)
# VH: QVQLQQSGAELVRPGASVKLSCTASGFNIKDDYIHWVKQRPEQGLEWIGRIDPADDHTKYAPKFQDKATMTADTSSNTACLQLNSLTSEDTAVYYCAIYGSGWAWFPYWGQGTLVSVSA
# VL: DIVMTQSPDYLAVSLGQRAPISCKASQSVDYDGDSYMNWYQQKPGQPPKLLIYAASNLEFGIPTRFSGSGFGTDFPLNIHPVEEEDAATYYCQQSNEDPWTFGGGPKLEIK
# notes: Mouse monoclonal antibody (NZBW hybridoma)
# B2: antibody IPN-M13 (antibody, V domains shown)
# VH: EVQLQQSGAELVRPGASVKLSCTASGFNIKDDYIHWVKQRPEQGLEWIGRIDPADDHTKYAPKFQDKATMTADTSSNTACLQLNSLTSEDTAVYYCAIYGSGWAWFPYWGQGTLVSVSA
# VL: DIVLTQSTDYLAVSLGQRATISCKASQSVDYDGDSYMNWYQQKPGQPPKLLIYAASNLESGIPARFSGSGSGTDFTLNIHPVEEEDAATYYCQQSNEDPWTFGGGTKLEIK
# notes: Mouse monoclonal antibody (NZBW hybridoma); Same VL and VH as IPN-M1 and IPN-M3
# Legend:
# [1] = biological target: T1, recombinant human complement component …; test: cell-based or functional assay
# [2] = biological target: T1, recombinant human complement component …; test: cell-based or functional assay; remark: listed apart in the source
# Pro-C1s = biological target: T2, Pro-C1s; test: bio-layer interferometry (BLI), kinetic analysis
# [3] = biological target: T3, purified human activated C1s protein, …; test: bio-layer interferometry (BLI), kinetic analysis
Binder,inhibition of C1s protease activity (relative to nafamostat) [1],"Inhibition of C1s Protease Activity (%), single point with clone supernatant, relative to 100 nM nafamostat [2]",Kd (Pro-C1s),koff (Pro-C1s),kon (Pro-C1s),Kd [3],koff [3],kon [3]
B1,> 50%,92%,35.2 nM,0.000329 s⁻¹,9330 M⁻¹ s⁻¹,0.21 nM,0.000182 s⁻¹,864000 M⁻¹ s⁻¹
B2,> 50%,96%,15.9 nM,0.000258 s⁻¹,16200 M⁻¹ s⁻¹,0.133 nM,0.000113 s⁻¹,851000 M⁻¹ s⁻¹
